According to publication PMC1238745 (2005):

Assays:
Experiment in all cases: NMR
Bax BH3 peptide BH3 = biological target: T1, Bax BH3 peptide BH3 (Homo sapiens, UniProt Q07812)
T1 chain: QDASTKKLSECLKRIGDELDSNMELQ

Bak BH3 peptide BH3 = biological target: T2, Bak BH3 peptide BH3 (Homo sapiens, UniProt Q16611)
T2 chain: GQVGRQLAIIGDDINR

Bad BH3 peptide BH3 = biological target: T3, Bad BH3 peptide BH3 (Homo sapiens, UniProt Q92934)
T3 chain: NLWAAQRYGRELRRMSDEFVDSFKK

B1: v-Bcl-2 (protein)
chain: MSHKKSGTYWATLITAFLKTVSKVEELDCVDSAVLVDVSKIITLTQEFRRHYDSVYRADYGPALKNWKRDLSKLFTSLFVDVINSGRIVGFFDVGRYVCEEVLCPGSWTEDHELLNDCMTHFFIENNLMNHFPLEDIFLAQRKFQTTGFTFLLHALAKVLPRIYSGNVIYV
Binder B1 has a Kd (Bax BH3 peptide BH3) of less than 5 µM, a Kd (Bak BH3 peptide BH3) of less than 5 µM and a Kd (Bad BH3 peptide BH3) greater than 300 µM.
